Reference: paper PMC4431178, “Molecular basis of sugar recognition by collectin-K1 and the effects of mutations associated with 3MC syndrome” (BMC Biology, 2015)

Biological target: T1, CL-K1 (Homo sapiens, UniProt Q9BWP8)
T1 construct: For full-length protein, the cDNA was cloned into the polylinker region of expression vector pED; made in house; host or cells: Chinese hamster ovary cells
Assay: Surface plasmon resonance of CL-K1 binding to glycoproteins
Details: glycoprotein starting concentration 200 nM
Procedure: Figure 1 Glycoprotein binding and complement activation by CL-K1. A) Immunoblot of CL-K1 binding to immobilised mammalian and yeast glycoproteins. B) Surface plasmon resonance of CL-K1 binding to glycoproteins. […] C3b and its breakdown products were detected by absorbance using an anti-human C3c antibody with alkaline phosphatase-conjugated goat anti-rabbit secondary antibody and p-nitrophenyl phosphate as the substrate. Protein concentrations were calculated based on the molecular masses of CL-K1 and MBL trimers (78 kDa in each case). CL-K1, collectin-K1; MBL, mannan-binding lectin.
CL-K1 was immobilised on the surface of a GLM sensor chip (Bio-Rad Laboratories Ltd (Hemel Hempstead, UK)) by amine coupling. Binding was measured in 10 mM Tris–HCl, pH 7.4 containing 140 mM NaCl, 2 mM CaCl2 and 0.005% Tween 20 at a flow rate of 25 μl/minute and at 25°C. The protein surface was regenerated in buffer containing 1 M NaCl and 5 mM EDTA.

T1 sequence (Q9BWP8 26-271): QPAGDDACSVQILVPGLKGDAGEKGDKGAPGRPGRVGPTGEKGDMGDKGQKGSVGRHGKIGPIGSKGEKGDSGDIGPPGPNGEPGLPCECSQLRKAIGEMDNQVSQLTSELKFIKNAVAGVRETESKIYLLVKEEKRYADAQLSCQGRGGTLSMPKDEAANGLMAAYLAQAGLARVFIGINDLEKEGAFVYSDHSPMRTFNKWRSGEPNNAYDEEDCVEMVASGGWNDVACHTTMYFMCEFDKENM

binding to CL-K1 by surface plasmon resonance: not
B1: milk lactoferrin: human milk lactoferrin, contains complex sugars (protein, UniProt P02788 20-710, looked up)
Lactotransferrin: GRRRSVQWCAVSQPEATKCFQWQRNMRKVRGPPVSCIKRDSPIQCIQAIAENRADAVTLDGGFIYEAGLAPYKLRPVAAEVYGTERQPRTHYYAVAVVKKGGSFQLNELQGLKSCHTGLRRTAGWNVPIGTLRPFLNWTGPPEPIEAAVARFFSASCVPGADKGQFPNLCRLCAGTGENKCAFSSQEPYFSYSGAFKCLRDGAGDVAFIRESTVFEDLSDEAERDEYELLCPDNTRKPVDKFKDCHLARVPSHAVVARSVNGKEDAIWNLLRQAQEKFGKDKSPKFQLFGSPSGQKDLLFKDSAIGFSRVPPRIDSGLYLGSGYFTAIQNLRKSEEEVAARRARVVWCAVGEQELRKCNQWSGLSEGSVTCSSASTTEDCIALVLKGEADAMSLDGGYVYTAGKCGLVPVLAENYKSQQSSDPDPNCVDRPVEGYLAVAVVRRSDTSLTWNSVKGKKSCHTAVDRTAGWNIPMGLLFNQTGSCKFDEYFSQSCAPGSDPRSNLCALCIGDEQGENKCVPNSNERYYGYTGAFRCLAENAGDVAFVKDVTVLQNTDGNNNEAWAKDLKLADFALLCLDGKRKPVTEARSCHLAMAPNHAVVSRMDKVERLKQVLLHQQAKFGRNGSDCPDKFCLFQSETKNLLFNDNTECLARLHGKTTYEKYLGPQYVAGITNLKKCSTSPLLEACEFLRK
